Test results: the supplement of paper PMC9233669
Fewer inactive variants are shown than the library holds.

Assays:
biotinyl-Trp-oxazolone = assay: self-aminoacylation, catalytic enhancement (BWO) (fold over background); higher = more active; k-Seq, kA / k0A0; sequences stand for … in GGGAAUGGAUCCACAUCUACGAAUUC…UUCACUGCAGACUUGACGAAGCUG
Outline: (§1)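 Catalytic enhancement equals the median kA over the uncatalyzed rate, the latter read from the low-activity peak of a bimodal Gaussian fit. Values of kA came from fitting each sequence's fraction reacted to a pseudo-first-order model, with 1000 bootstraps. Reacted RNA was captured with streptavidin and quantified by triplicate qPCR and Illumina sequencing after 90 minutes at room temperature with 2–1250 μM biotinyl-aminoacyl-oxazolone and 0.43 μM mutagenized RNA pools bearing a 21-nt variable region.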

biotinyl-Phe-oxazolone = assay: self-aminoacylation, catalytic enhancement (BFO) (fold over background); higher = more active; k-Seq, kA / k0A0; sequences stand for … in GGGAAUGGAUCCACAUCUACGAAUUC…UUCACUGCAGACUUGACGAAGCUG
Outline: as §1

Row | Sequence | self-aminoacylation (biotinyl-Trp-oxazolone) | self-aminoacylation (biotinyl-Phe-oxazolone)
1 | CUAGUUCCAACAAUCGGUCUG [Fam1A.1 aminoacylation ribozyme variant] | 9.72 | 9.79
2 | GUACUUCAAACAAUCGGUCCG [Fam1A.1 aminoacylation ribozyme variant] | 3.6 | 6.11
3 | CCACUCUUCAAGGAAUCGGUC [Fam1B.1 aminoacylation ribozyme variant] | 3.24 | 3
4 | UUUCUUCAAACAAUCGGUCUG [Fam1A.1 aminoacylation ribozyme variant] | 5.16 | 7.67
5 | CCACUUCAAACGAUCGGUCUG [Fam1A.1 aminoacylation ribozyme variant] | 2.62 | 3.03
6 | AUACUUCAAACAAUCGGUCUC [Fam1A.1 aminoacylation ribozyme variant] | 7.89 | 13.5
7 | CUACACUUCAAGCAAUCGGUC [Fam1B.1 aminoacylation ribozyme variant] | 22.8 | 54.5
8 | CUACUUCAAACAAUCGGUCAC [Fam1A.1 aminoacylation ribozyme variant] | 8.51 | 23.1
9 | CCACACUUCAACCAAUCGGUU [Fam1B.1 aminoacylation ribozyme variant] | 11.9 | 12.3
10 | AAGUUUGCUAGUAGUCGCACG [Fam3.1 aminoacylation ribozyme variant] | 2.21 | 3.09
11 | CUAGUUCAAUCAAUCGGUCUG [Fam1A.1 aminoacylation ribozyme variant] | 2.63 | 3.97
12 | CUCCUUCAAAGAAUCGGUCUG [Fam1A.1 aminoacylation ribozyme variant] | 5.66 | 6.59
13 | AAGUUUCCUAAUAGUCGCACG [Fam3.1 aminoacylation ribozyme variant] | 2.23 | 2.96
14 | UUAAUUCAAACAAUCGGUCUG [Fam1A.1 aminoacylation ribozyme variant] | 2.47 | 3.57
15 | CUAGUUCAAACAAUCGGUUUG [Fam1A.1 aminoacylation ribozyme variant] | 3.41 | 4.59
16 | AAGAUUGCUAAUAGUCGUAAG [Fam3.1 aminoacylation ribozyme variant] | 2.41 | 9.9
17 | CCCCACUUCUAGCAAUCGGUC [Fam1B.1 aminoacylation ribozyme variant] | 2.23 | 2.55
18 | AAGUUUGCUAAUGGUCGCAAA [Fam3.1 aminoacylation ribozyme variant] | 2.87 | 2.48
19 | CCUCUCUUCAAGCAAUCGGUC [Fam1B.1 aminoacylation ribozyme variant] | 20 | 36.3
20 | UUACUUCAAAUAAUCGGUCUG [Fam1A.1 aminoacylation ribozyme variant] | 7.5 | 10.3
21 | CUACACUUCAAUCAAUCGGUC [Fam1B.1 aminoacylation ribozyme variant] | 18.5 | 37.4

Row | Sequence | self-aminoacylation (biotinyl-Trp-oxazolone) | self-aminoacylation (biotinyl-Phe-oxazolone)
22 | CUUCUUCAAACAAUCGGUCUA [Fam1A.1 aminoacylation ribozyme variant] | 4.8 | 11.4
23 | AAAUUUGCUAAUAGUCGCAAG [Fam3.1 aminoacylation ribozyme variant] | 2.13 | 4
24 | CCACUUCAAAUAAUCGGUCUG [Fam1A.1 aminoacylation ribozyme variant] | 15.2 | 17.9
25 | AUUCACCUAGUUCAUCGGGUA [Fam2.2 aminoacylation ribozyme variant] | 2.37 | 5.42
26 | CUACUUCAAACAAUCUCUCUG [Fam1A.1 aminoacylation ribozyme variant] | 4.21 | 10.1
27 | GCACACUUCAAGCAAUCGGUC [Fam1B.1 aminoacylation ribozyme variant] | 19.8 | 32.3
28 | CCCCACUUAAAGCAAUCGGUC [Fam1B.1 aminoacylation ribozyme variant] | 2.05 | 2.09
29 | CCAGACUUCAAGGAAUCGGUC [Fam1B.1 aminoacylation ribozyme variant] | 5.9 | 6.35
30 | CCACACCUCAAUCAAUCGGUC [Fam1B.1 aminoacylation ribozyme variant] | 2.88 | 3.88
31 | AAGUUUUCUAUUAGUCGCAAG [Fam3.1 aminoacylation ribozyme variant] | 2.07 | 2.22
32 | CUACUUCAAACAAUCGGUCUU [Fam1A.1 aminoacylation ribozyme variant] | 15.3 | 31.2
33 | CCAUACUUCAAACAAUCGGUC [Fam1B.1 aminoacylation ribozyme variant] | 30.3 | 66.4
34 | AAGUCUACUAAUAGUCGCAAG [Fam3.1 aminoacylation ribozyme variant] | 2.11 | 3.17
35 | CCACGCCUCAAGCAAUCGGUC [Fam1B.1 aminoacylation ribozyme variant] | 6.73 | 10.4
36 | CGACUUCAAACAAUCGGUCUA [Fam1A.1 aminoacylation ribozyme variant] | 6.02 | 12.7
37 | UCACACUUCAAGGAAUCGGUC [Fam1B.1 aminoacylation ribozyme variant] | 3.91 | 5.43
38 | ACUCACUUCAAGCAAUCGGUC [Fam1B.1 aminoacylation ribozyme variant] | 5.36 | 9.3
39 | CCACUUCAAAAAAUCGGUCUG [Fam1A.1 aminoacylation ribozyme variant] | 12.1 | 15.2
40 | AAGUGUGCUAAUAGUCGAAAG [Fam3.1 aminoacylation ribozyme variant] | 4.55 | 11.5
41 | CUACUUCAAACAAUCGGUCAG [Fam1A.1 aminoacylation ribozyme variant] | 7.09 | 16.7
42 | GCACACUUCAAGCAAUCAGUC [Fam1B.1 aminoacylation ribozyme variant] | 4.94 | 9.69

Row | Sequence | self-aminoacylation (biotinyl-Trp-oxazolone) | self-aminoacylation (biotinyl-Phe-oxazolone)
43 | CCACCCUUCAAUCAAUCGGUC [Fam1B.1 aminoacylation ribozyme variant] | 20.9 | 28.6
44 | CCCCACUUUAAGCAAUCGGUC [Fam1B.1 aminoacylation ribozyme variant] | 2.1 | 2.4
45 | UUACUUCAAACAAUCGGUCUA [Fam1A.1 aminoacylation ribozyme variant] | 2.61 | 6.02
46 | GCACAUUUCAAGCAAUCGGUC [Fam1B.1 aminoacylation ribozyme variant] | 3.16 | 3.69
47 | CCACACUCCAACCAAUCGGUC [Fam1B.1 aminoacylation ribozyme variant] | 2.18 | 3.55
48 | CUACUUCAAACAAUCGGUUUC [Fam1A.1 aminoacylation ribozyme variant] | 2.18 | 4.72
49 | CUAGUUCAAACAAUCGGUCUG [Fam1A.1 aminoacylation ribozyme variant] | 6.47 | 11
50 | CAAGACUUCAAGCAAUCGGUC [Fam1B.1 aminoacylation ribozyme variant] | 9.73 | 15.3
51 | CCACACUUCAAGUAAUCGGUC [Fam1B.1 aminoacylation ribozyme variant] | 9.7 | 16.4
52 | CUACUUCAACCAAUCGGUUUG [Fam1A.1 aminoacylation ribozyme variant] | 10.8 | 17
53 | UCAUACUUCAAGCAAUCGGUC [Fam1B.1 aminoacylation ribozyme variant] | 9.74 | 16.9
54 | AUUACCAUGGUCAUCGAGGGA [Fam2.1 aminoacylation ribozyme variant] | 2.58 | 2.21
55 | AAGUUUGCUAAUAGCCGCAAG [Fam3.1 aminoacylation ribozyme variant] | 2.2 | 6.96
56 | UAGUUUGCUAAUAGUCGUAAG [Fam3.1 aminoacylation ribozyme variant] | 4.18 | 17.9
57 | AAGAUUGCUUAUAGUCGCAAG [Fam3.1 aminoacylation ribozyme variant] | 2.35 | 2.44
58 | CAACUUCAAACAAUCUGUCUG [Fam1A.1 aminoacylation ribozyme variant] | 2.14 | 4.35
59 | CCACUUCAAACAUUCGGUCUG [Fam1A.1 aminoacylation ribozyme variant] | 2.73 | 5.58
60 | CUACUUACAACAAUCGGUCUG [Fam1A.1 aminoacylation ribozyme variant] | 2.34 | 3.29
61 | CAACGUCAAACAAUCGGUCUG [Fam1A.1 aminoacylation ribozyme variant] | 2.6 | 3.29
62 | CUACUUCAAACAAUCGGUCGU [Fam1A.1 aminoacylation ribozyme variant] | 10.3 | 16.3
